# Test results as given in patent publication US20250382602.
# Positions count from the first letter of the chain named.
# Assays:
# Settings in all cases: nanopore translocation, FLO-MIN112; background mutations not given
# [1] = target: T1, Dda 1993 351I 351I (Enterobacteria phage T4) (UniProt P32270)
# T1 sequence: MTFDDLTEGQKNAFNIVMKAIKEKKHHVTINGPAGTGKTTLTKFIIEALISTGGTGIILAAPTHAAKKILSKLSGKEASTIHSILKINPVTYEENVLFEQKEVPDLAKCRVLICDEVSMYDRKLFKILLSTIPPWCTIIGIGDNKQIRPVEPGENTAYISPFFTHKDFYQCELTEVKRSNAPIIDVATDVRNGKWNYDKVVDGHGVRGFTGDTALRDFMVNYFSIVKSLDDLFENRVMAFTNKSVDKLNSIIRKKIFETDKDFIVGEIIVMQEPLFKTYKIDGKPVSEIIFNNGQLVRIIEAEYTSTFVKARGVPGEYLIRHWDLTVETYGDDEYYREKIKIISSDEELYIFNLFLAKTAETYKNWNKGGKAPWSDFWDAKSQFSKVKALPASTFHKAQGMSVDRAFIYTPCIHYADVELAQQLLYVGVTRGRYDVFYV
# [2] = target: T2, Dda 1993 351Q 351Q (Enterobacteria phage T4) (UniProt P32270)
# T2 sequence: T1 sequence with I351Q
# [3] = target: T3, Dda 1993 354Q 354Q (Enterobacteria phage T4) (UniProt P32270)
# T3 sequence: T1 sequence with I351K, L354Q
# [4] = target: T4, Dda 1993 K358A K358A (Enterobacteria phage T4) (UniProt P32270)
# T4 sequence: T1 sequence with I351K, K358A
# [5] = target: T5, Dda 1993 K358M K358M (Enterobacteria phage T4) (UniProt P32270)
# T5 sequence: T1 sequence with I351K, K358M
# [6] = target: T6, Dda 1993 Y350I Y350I (Enterobacteria phage T4) (UniProt P32270)
# T6 sequence: T1 sequence with Y350I, I351K
substance,measurement,setting,value
barcoded 3.6 kb DNA analyte ligated to sequencing Y adaptor,activity (bps speed delta vs control),[1],-9.76
same,activity (bps speed delta vs control),[2],-5.61
same,activity (bps speed delta vs control),[3],0.09
same,activity (bps speed delta vs control),[4],-0.99
same,activity (bps speed delta vs control),[5],-11.8
same,activity (bps speed delta vs control),[6],2.22
